Results on one molecule are retold here after PMC3680732.

The data set addresses T1, HOT1 DBD (crystal) (human, UniProt Q6NT76 233-345).
T1 sequence: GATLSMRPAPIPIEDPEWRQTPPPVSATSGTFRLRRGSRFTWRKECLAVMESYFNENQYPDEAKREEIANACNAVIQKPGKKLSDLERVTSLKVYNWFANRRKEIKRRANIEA
Put plainly: crystal structure.

B1: T1/T2 telomeric crystal duplex (dsDNA)
DNA 1: CTGTTAGGGTTAGGGTTAG
DNA 2: TCTAACCCTAACCCTAACA
In the case of B1, the binding result was “binds”.
